Measurements taken from publication PMC6650273 (Nature cell biology, 2019).

Target: FLAG-Tor (Dictyostelium discoideum, UniProt Q86C65 1-2380)
Experiment: pull-down

Chain of FLAG-Tor (Q86C65 whole entry): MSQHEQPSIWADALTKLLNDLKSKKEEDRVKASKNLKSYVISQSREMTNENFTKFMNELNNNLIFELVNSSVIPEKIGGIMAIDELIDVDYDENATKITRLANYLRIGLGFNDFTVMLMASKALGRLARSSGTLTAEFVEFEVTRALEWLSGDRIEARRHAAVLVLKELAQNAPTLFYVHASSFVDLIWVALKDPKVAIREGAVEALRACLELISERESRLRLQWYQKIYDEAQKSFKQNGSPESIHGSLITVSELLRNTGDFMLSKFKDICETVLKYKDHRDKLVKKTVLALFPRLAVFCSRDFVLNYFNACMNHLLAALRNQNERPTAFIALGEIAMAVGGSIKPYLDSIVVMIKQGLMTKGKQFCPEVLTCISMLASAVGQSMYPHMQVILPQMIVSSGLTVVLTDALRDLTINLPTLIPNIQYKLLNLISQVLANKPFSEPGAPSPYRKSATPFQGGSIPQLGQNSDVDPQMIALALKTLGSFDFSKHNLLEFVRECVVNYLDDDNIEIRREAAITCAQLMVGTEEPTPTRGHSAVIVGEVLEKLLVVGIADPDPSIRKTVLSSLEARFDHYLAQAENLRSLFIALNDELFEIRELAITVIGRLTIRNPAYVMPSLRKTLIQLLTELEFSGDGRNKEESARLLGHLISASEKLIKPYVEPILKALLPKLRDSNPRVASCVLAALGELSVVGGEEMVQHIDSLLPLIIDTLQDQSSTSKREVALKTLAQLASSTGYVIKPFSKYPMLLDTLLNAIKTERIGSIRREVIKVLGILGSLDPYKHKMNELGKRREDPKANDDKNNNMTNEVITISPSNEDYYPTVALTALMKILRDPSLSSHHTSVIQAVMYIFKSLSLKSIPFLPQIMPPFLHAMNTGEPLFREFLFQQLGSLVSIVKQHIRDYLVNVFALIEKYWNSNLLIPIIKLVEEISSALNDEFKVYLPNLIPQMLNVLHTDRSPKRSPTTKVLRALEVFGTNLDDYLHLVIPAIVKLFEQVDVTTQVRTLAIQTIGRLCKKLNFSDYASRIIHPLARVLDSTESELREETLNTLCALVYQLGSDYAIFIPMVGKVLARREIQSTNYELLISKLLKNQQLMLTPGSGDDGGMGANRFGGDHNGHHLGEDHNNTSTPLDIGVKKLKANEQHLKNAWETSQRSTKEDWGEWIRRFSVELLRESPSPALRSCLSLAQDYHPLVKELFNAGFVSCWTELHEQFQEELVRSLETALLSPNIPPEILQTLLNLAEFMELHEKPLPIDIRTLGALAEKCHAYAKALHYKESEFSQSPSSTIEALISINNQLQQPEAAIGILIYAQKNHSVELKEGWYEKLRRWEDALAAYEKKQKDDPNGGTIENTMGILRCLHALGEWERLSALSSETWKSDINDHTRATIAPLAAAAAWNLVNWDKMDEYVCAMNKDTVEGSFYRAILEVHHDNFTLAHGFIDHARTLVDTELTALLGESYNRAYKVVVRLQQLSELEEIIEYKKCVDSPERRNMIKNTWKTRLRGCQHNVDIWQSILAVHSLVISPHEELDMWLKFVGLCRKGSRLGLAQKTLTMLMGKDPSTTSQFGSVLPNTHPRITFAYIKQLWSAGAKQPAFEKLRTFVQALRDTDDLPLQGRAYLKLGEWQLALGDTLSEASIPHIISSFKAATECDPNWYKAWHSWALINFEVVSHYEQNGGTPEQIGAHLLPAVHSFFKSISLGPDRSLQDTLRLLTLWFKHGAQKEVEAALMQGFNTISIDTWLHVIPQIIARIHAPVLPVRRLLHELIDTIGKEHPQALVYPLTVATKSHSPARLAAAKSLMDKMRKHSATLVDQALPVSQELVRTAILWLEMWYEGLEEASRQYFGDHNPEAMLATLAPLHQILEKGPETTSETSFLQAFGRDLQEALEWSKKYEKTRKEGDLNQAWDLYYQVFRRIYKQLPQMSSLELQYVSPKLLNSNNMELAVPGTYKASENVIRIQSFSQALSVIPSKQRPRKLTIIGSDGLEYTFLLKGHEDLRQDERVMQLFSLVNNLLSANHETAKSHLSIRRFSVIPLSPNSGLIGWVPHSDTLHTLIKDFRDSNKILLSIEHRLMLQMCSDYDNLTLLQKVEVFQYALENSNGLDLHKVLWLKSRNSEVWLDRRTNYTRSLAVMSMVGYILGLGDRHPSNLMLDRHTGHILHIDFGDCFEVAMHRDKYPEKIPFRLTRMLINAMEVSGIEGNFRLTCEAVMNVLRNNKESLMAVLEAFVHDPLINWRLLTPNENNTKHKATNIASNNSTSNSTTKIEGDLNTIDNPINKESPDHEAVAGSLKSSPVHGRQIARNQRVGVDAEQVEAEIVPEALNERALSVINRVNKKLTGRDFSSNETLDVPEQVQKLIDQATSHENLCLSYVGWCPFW

- binding result: binds
B1: GFP-RacE_(T25N), GDP-bound, purified after chemoattractant stimulation (Ser192 phosphorylated) (natural protein)
chain: MSEDQGSGATRVKLVVVGDGAVGKNCLLICYAQNDFPVDYVPTVFENYTATRKRGNEDIKVHLWDTAGQEEYDRLRPLSYPGADVVLLCFSTISQSSYEAIRDKWAPEVNHYIPDVPSILVGTKIDLREQQHPDPNSGKFEPITADMGISMQKQIKAKKYLEVSAKTRQGLEEVFSAAIEIVLESRGMDKKSQDGSSSASGVPSGDKPTKGKAGKKKSGCIIL
modifications: phosphoserine at 192 (chemoattractant-induced)
